Read-outs that look alike come from different tables or passages of the source. Where no end group is shown, it is not given here. [ ]: non-standard residue; d: D form. fluorescein = fluorescein label on the N-terminus; pT = C[C@@H](OP(=O)(O)O)[C@H](N)C(=O)O; pS = N[C@@H](COP(=O)(O)O)C(=O)O; FAM = fluorescein
T1: 14-3-3σ, full-length, recombinant (human, UniProt P31947 1-248)
T1 sequence (looked up): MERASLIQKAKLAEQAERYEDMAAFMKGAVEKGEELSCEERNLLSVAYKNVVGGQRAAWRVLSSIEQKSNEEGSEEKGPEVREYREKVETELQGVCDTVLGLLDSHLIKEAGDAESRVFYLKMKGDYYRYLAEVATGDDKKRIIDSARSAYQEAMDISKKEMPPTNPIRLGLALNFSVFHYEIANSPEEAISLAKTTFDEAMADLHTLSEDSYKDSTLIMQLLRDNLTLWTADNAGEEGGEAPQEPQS

B1: GPR15-ctp, fluorescein-labeled hexaphosphopeptide KRSVpSL-COOH (peptide)
peptide: fluorescein-KRSV[pS]L-OH
B2: N-FAM-2 variant with C-terminal residue T (peptide, UniProt P03372 581-595, looked up)
peptide: {FAM}-KYYITGEAEGFPA[pT]T
B3: ERα C-terminal phospholigand (ERα-ctp, 2) (peptide, UniProt P03372 581-595, looked up)
peptide: KYYITGEAEGFPA[pT]V
B4: Task3-ctp, fluorescein-labeled hexaphosphopeptide RKKRpSV-COOH (peptide)
peptide: fluorescein-RKKR[pS]V-OH
B5: N-FAM-2 variant with C-terminal residue S (peptide, UniProt P03372 581-595, looked up)
peptide: {FAM}-KYYITGEAEGFPA[pT]S
B6: N-FAM-2 variant with C-terminal residue A (peptide, UniProt P03372 581-595, looked up)
peptide: {FAM}-KYYITGEAEGFPA[pT]A
B7: N-FAM-2 variant with C-terminal residue D (peptide, UniProt P03372 581-595, looked up)
peptide: {FAM}-KYYITGEAEGFPA[pT]D
B8: N-FAM-2 variant with C-terminal residue F (peptide, UniProt P03372 581-595, looked up)
peptide: {FAM}-KYYITGEAEGFPA[pT]F
B9: p27Kip1-ctp, fluorescein-labeled hexaphosphopeptide ALRRQpT-COOH (peptide)
peptide: fluorescein-ALRRQ[pT]-OH
B10: N-FAM-2 variant with C-terminal residue L (peptide, UniProt P03372 581-595, looked up)
peptide: {FAM}-KYYITGEAEGFPA[pT]L
B11: GpIBα-ctp, fluorescein-labeled hexaphosphopeptide YSGHpSL-COOH (peptide)
peptide: fluorescein-YSGH[pS]L-OH
B12: N-FAM-2 variant with C-terminal residue I (peptide, UniProt P03372 581-595, looked up)
peptide: {FAM}-KYYITGEAEGFPA[pT]I
B13: fluorescein-labeled N-FAM-ERα-ctp (N-FAM-2) (peptide, UniProt P03372 581-595, looked up)
peptide: {FAM}-KYYITGEAEGFPA[pT]V
B14: 14-3-3σ, full-length, recombinant (natural protein)
chain: T1 sequence (looked up)
B15: IRL9-ctp, fluorescein-labeled hexaphosphopeptide ARSWpTF-COOH (peptide)
peptide: fluorescein-ARSW[pT]F-OH
B16: N-FAM-2 variant with C-terminal residue G (peptide, UniProt P03372 581-595, looked up)
peptide: {FAM}-KYYITGEAEGFPA[pT]G
B17: N-FAM-2 variant with C-terminal residue N (peptide, UniProt P03372 581-595, looked up)
peptide: {FAM}-KYYITGEAEGFPA[pT]N

Experiments:
[1] = biological target: T1, 14-3-3σ, full-length, recombinant; test: fluorescence polarisation
[2] = biological target: T1, 14-3-3σ, full-length, recombinant; test: fluorescence polarisation; remark: listed apart in the source
[3] = biological target: T1, 14-3-3σ, full-length, recombinant; test: fluorescence polarisation; remark: listed apart in the source
[4] = biological target: T1, 14-3-3σ, full-length, recombinant; test: fluorescence polarisation; remark: listed apart in the source
[5] = biological target: T1, 14-3-3σ, full-length, recombinant; test: ITC
[6] = biological target: T1, 14-3-3σ, full-length, recombinant; test: ITC; remark: listed apart in the source
[7] = biological target: fluorescein-labeled TNFRSF19-ctp (4) (human); test: fluorescence polarisation
[8] = biological target: fluorescein-labeled Nup160-ctp (3) (human); test: fluorescence polarisation
[9] = biological target: fluorescein-labeled TNFRSF19-ctp (4) (human); test: fluorescence polarisation; remark: listed apart in the source
[10] = biological target: fluorescein-labeled Nup160-ctp (3) (human); test: fluorescence polarisation; remark: listed apart in the source

| Binder | Kd [3] [µM] | Kd [4] [µM] | further results |
| --- | --- | --- | --- |
| B1 | – | – | Kd [1]: 7.36 µM; Kd [2]: 1.1 µM |
| B2 | 1.32 | 50 | – |
| B3 | – | – | Kd [5]: 0.02 µM; Kd [6]: 0.75 µM |
| B4 | – | – | Kd [1]: 3.15 µM; Kd [2]: 0.1 µM |
| B5 | 3.54 | 79.8 | – |
| B6 | 0.7 | 19.9 | – |
| B7 | 48.2 | 173 | – |
| B8 | 4.03 | 10.5 | – |
| B9 | – | – | Kd [1]: 82.2 µM; Kd [2]: 39.9 µM |
| B10 | 0.17 | 11 | – |
| B11 | – | – | Kd [1]: 22.5 µM; Kd [2]: 1.69 µM |
| B12 | 0.06 | 3.03 | – |
| B13 | 0.05 | 3.61 | – |
| B14 | – | – | Kd [7]: 38 µM; Kd [8]: 0.25 µM; Kd [9]: 538 µM; Kd [10]: 5.34 µM |
| B15 | – | – | Kd [1]: 3.16 µM; Kd [2]: 1.54 µM |
| B16 | 36.5 | 144 | – |
| B17 | 32.4 | 59.5 | – |
